Laboratory results reported in US20260139278A1, “SPECIFICITY OF CRISPR-TRANSPOSON SYSTEMS IN DNA MODIFICATION” (The Trustees of Columbia University in the City of New York, published 2026).

Columns and labels:
[1] = biological target: T1, TnsC (Scytonema hofmannii UTEX B 2349, Type V-K CAST, recombinantly purified, after TEV cleavage) (Scytonema hofmannii (UTEX B 2349)); test: fluorescence polarization, TniQ (0-1 µM) titrated onto 55-bp FAM-labeled dsDNA preincubated with TnsC
T1 construct: also called AAA+ ATPase; AAA+ regulator
T1 chain: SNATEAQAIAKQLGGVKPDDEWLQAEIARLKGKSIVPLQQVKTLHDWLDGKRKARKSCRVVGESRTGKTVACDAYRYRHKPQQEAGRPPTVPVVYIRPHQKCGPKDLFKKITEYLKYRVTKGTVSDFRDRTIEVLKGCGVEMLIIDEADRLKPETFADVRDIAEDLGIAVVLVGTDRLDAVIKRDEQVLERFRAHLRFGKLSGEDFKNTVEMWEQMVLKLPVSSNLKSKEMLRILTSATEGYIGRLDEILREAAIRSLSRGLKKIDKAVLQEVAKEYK
Description: (§1) Fluorescence polarization. Fluorescence polarization was performed as reported earlier (Hoffmann, F. T. et al. Nature 609, 384-393 (2022). A 55 bp dsDNA labeled with a 5′ Fluorescein (6-FAM) tag on one of its strands was used for all fluorescence polarization experiments (Table 3). Recombinantly expressed TnsC (0-15 μM) was titrated with the FAM-labeled dsDNA in 1× binding buffer (20 mM HEPES pH 7.5, 2 mM MgCl₂, 200 mM NaCl, 10 μM ZnCl₂, 1 mM DTT) in the presence of 2 mM ATP or its analogs. The samples were incubated at 37° C. for 30 min in a 384-well plate. The fluorescence gain was adjusted to a sample lacking TnsC while keeping a requested polarization value of 60 mP. The error bar represents the standard deviation measured across two technical replicates. For low salt measurements, the concentration of NaCl was maintained at 50 mM.
(§2) For fluorescence polarization measurements for TniQ alone or its interaction with DNA bound to TnsC, TniQ (0-1 μM) was titrated and incubated for 30 min at 37° C. with fluorescently labeled DNA alone or DNA preincubated with […] (30 min at 37° C.). Experiments were conducted in a 1× binding buffer containing 50 mM NaCl in a 25 μL final volume.

TniQ + TnsC (ShCAST) = biological target: T2, TniQ + TnsC (ShCAST) (Scytonema hofmannii UTEX B 2349); test: FP; TniQ titrated onto DNA preincubated with TnsC, 50 mM NaCl, 37C; settings: tags: His6-SUMO-TEV cleaved
T2 chain 1: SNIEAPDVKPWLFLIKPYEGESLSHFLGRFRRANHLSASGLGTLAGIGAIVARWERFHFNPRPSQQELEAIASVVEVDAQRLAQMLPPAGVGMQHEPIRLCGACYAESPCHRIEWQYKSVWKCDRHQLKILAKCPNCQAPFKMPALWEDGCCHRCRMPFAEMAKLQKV
T2 chain 2: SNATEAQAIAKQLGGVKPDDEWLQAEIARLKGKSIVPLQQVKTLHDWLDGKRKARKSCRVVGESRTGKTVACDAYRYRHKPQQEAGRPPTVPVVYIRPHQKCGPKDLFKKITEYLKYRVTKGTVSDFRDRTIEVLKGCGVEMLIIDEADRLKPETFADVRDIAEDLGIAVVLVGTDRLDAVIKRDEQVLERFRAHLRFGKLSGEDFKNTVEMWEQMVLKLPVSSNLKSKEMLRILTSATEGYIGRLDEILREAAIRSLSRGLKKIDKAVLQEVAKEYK
Description: as §1, §2

TnsC (ShCAST) = biological target: T3, TnsC (ShCAST) (Scytonema hofmannii UTEX B 2349); test: FP; ATP-dependent at 200 mM NaCl; nucleotide-independent at 50 mM NaCl; 2 mM MgCl2, 37C; settings: tags: His6-SUMO-TEV cleaved (SNA N-terminal scar)
T3 chain: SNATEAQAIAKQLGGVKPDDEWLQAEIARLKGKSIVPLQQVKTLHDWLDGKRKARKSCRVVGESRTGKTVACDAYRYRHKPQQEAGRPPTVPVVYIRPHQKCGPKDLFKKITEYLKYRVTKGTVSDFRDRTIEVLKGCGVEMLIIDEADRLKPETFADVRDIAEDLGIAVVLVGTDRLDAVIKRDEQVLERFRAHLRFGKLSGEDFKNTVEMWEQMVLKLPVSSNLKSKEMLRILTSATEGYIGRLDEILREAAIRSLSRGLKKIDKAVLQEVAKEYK
Description: as §1

[2] = biological target: T4, TnsC (Scytonema hofmannii UTEX B 2349, Type V-K CAST, recombinantly purified, after TEV cleavage)
T4 chain: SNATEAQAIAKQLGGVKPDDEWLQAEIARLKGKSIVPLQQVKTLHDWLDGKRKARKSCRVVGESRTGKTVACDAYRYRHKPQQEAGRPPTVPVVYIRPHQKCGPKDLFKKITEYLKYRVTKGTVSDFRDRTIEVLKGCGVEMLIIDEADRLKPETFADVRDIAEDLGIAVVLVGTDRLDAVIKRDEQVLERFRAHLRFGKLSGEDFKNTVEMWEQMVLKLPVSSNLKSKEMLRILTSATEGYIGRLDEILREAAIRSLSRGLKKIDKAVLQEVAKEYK

B1: TniQ (Scytonema hofmannii UTEX B 2349, Type V-K CAST, recombinantly purified, after TEV cleavage) (other)
chain: SNIEAPDVKPWLFLIKPYEGESLSHFLGRFRRANHLSASGLGTLAGIGAIVARWERFHFNPRPSQQELEAIASVVEVDAQRLAQMLPPAGVGMQHEPIRLCGACYAESPCHRIEWQYKSVWKCDRHQLKILAKCPNCQAPFKMPALWEDGCCHRCRMPFAEMAKLQKV
notes: also called ShCAST TniQ; adaptor protein
[1]
  binding result: binds

B2: 55-bp FAM dsDNA (dsDNA)
DNA 1: GAGGAGGGCTGTTTTTACAAAATCCGGTAGTAACTTGCTAACCAATTCCTAGGCA
DNA 2: TGCCTAGGAATTGGTTAGCAAGTTACTACCGGATTTTGTAAAAACAGCCCTCCTC
TniQ + TnsC (ShCAST)
  binding result: binds
TnsC (ShCAST)
  binding result: binds

B3: TnsB (Scytonema hofmannii UTEX B 2349, Type V-K CAST, recombinantly purified, after TEV cleavage) (protein)
chain: SNNSQQNPDLAVHPLAIPMEGLLGESATTLEKNVIATQLSEEAQVKLEVIQSLLEPCDRTTYGQKLREAAEKLNVSLRTVQRLVKNWEQDGLVGLTQTSRADKGKHRIGEFWENFITKTYKEGNKGSKRMTPKQVALRVEAKARELKDSKPPNYKTVLRVLAPILEKQQKAKSIRSPGWRGTTLSVKTREGKDLSVDYSNHVWQCDHTRVDVLLVDQHGEILSRPWLTTVIDTYSRCIMGINLGFDAPSSGVVALALRHAILPKRYGSEYKLHCEWGTYGKPEHFYTDGGKDFRSNHLSQIGAQLGFVCHLRDRPSEGGVVERPFKTLNDQLFSTLPGYTGSNVQERPEDAEKDARLTLRELEQLLVRYIVDRYNQSIDARMGDQTRFERWEAGLPTVPVPIPERDLDICLMKQSRRTVQRGGCLQFQNLMYRGEYLAGYAGETVNLRFDPRDITTILVYRQENNQEVFLTRAHAQGLETEQLALDEAEAASRRLRTAGKTISNQSLLQEVVDRDALVATKKSRKERQKLEQTVLRSAAVDESNRESLPSQIVEPDEVESTETVHSQYEDIEVWDYEQLREEYGF
[2]
  ATP hydrolysis activity of TnsC (Malachite Green assay): TnsB stimulates the ATP hydrolysis activity of TnsC in a DNA-dependent reaction
  phosphate liberated (Malachite Green Phosphate Assay; TnsC 10 µM, TnsB 20 µM, dsDNA 10 µM, 1 mM ATP, 120 min at 37° C.): the sample containing TnsC, TnsB and dsDNA which liberated 174 µM of phosphate
